In PMC12416549 (2024):
Numbering of substitutions follows the chain as printed. In names and notes the source's numbering stands.

B1: K23A (designed binder)
chain: SMEEEVEKAAKEYEKKKKEAIEAHLEKLKAKDKEAAERFLKELEEAAKEYAKDEAKTMSEEEAKRRAKKYKEKVLLSELSEEEQKEIKEAEEKLVRTILKYVEEAAK
B2: E82A (designed binder)
chain: B1 chain with A23K, E82A
B3: K11I (designed binder)
chain: B1 chain with K11I, A23K
B4: E3Q (designed binder)
chain: B1 chain with E3Q, A23K
B5: E7Q (designed binder)
chain: B1 chain with E7Q, A23K
B6: A90V (designed binder)
chain: B1 chain with A23K, A90V
B7: L79N (designed binder)
chain: B1 chain with A23K, L79N
B8: K71S (designed binder)
chain: B1 chain with A23K, K71S
B9: E12Q (designed binder)
chain: B1 chain with E12Q, A23K
B10: L75M (designed binder)
chain: B1 chain with A23K, L75M
B11: K17I (designed binder)
chain: B1 chain with K17I, A23K
B12: F39Q (designed binder)
chain: B1 chain with A23K, F39Q
B13: I21F (designed binder)
chain: B1 chain with I21F, A23K
B14: K71G (designed binder)
chain: B1 chain with A23K, K71G
B15: L43I (designed binder)
chain: B1 chain with A23K, L43I
B16: V102W (designed binder)
chain: B1 chain with A23K, V102W
B17: A90L (designed binder)
chain: B1 chain with A23K, A90L
B18: D53L (designed binder)
chain: B1 chain with A23K, D53L
B19: D32F (designed binder)
chain: B1 chain with A23K, D32F
B20: E86T (designed binder)
chain: B1 chain with A23K, E86T
B21: S80H (designed binder)
chain: B1 chain with A23K, S80H
B22: E14V (designed binder)
chain: B1 chain with E14V, A23K
B23: E86V (designed binder)
chain: B1 chain with A23K, E86V
B24: A105R (designed binder)
chain: B1 chain with A23K, A105R

Target: T1, TNFR1 (Homo sapiens, UniProt P19438)
T1 chain: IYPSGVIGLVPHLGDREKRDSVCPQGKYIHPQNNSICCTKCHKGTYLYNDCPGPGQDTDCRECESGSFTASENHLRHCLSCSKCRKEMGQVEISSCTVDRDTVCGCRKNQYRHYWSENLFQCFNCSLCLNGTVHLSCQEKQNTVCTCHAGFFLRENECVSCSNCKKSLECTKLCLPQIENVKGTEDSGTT
Experiment: yeast display SC50

| Binder | apparent Kd (screen) [nM] |
| --- | --- |
| B1 | 0.446 |
| B2 | 0.593 |
| B3 | 0.539 |
| B4 | 2.25 |
| B5 | 4.39 |
| B6 | 1.27 |
| B7 | 12.5 |
| B8 | 0.869 |
| B9 | 0.956 |
| B10 | 0.49 |
| B11 | 0.956 |
| B12 | 5.84 |
| B13 | 0.49 |
| B14 | 5.31 |
| B15 | 1.4 |
| B16 | 1.4 |
| B17 | 0.446 |
| B18 | 13.8 |
| B19 | 6.43 |
| B20 | 0.956 |
| B21 | 0.956 |
| B22 | 11.4 |
| B23 | 1.05 |
| B24 | 2.73 |
